Measured values: the supplement of paper PMC9233669
Variants at the floor of the assay were thinned out.

Columns and labels:
biotinyl-Leu-oxazolone = assay: self-aminoacylation, catalytic enhancement (BLO) (fold over background); higher = more active; k-Seq, kA / k0A0; sequences stand for … in GGGAAUGGAUCCACAUCUACGAAUUC…UUCACUGCAGACUUGACGAAGCUG
Method in brief: (§1)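 Catalytic enhancement equals the median kA over the uncatalyzed rate, the latter read from the low-activity peak of a bimodal Gaussian fit. Values of kA came from fitting each sequence's fraction reacted to a pseudo-first-order model, with 1000 bootstraps. Reacted RNA was captured with streptavidin and quantified by triplicate qPCR and Illumina sequencing after 90 minutes at room temperature with 2–1250 μM biotinyl-aminoacyl-oxazolone and 0.43 μM mutagenized RNA pools bearing a 21-nt variable region.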

biotinyl-Phe-oxazolone = assay: self-aminoacylation, catalytic enhancement (BFO) (fold over background); higher = more active; k-Seq, kA / k0A0; sequences stand for … in GGGAAUGGAUCCACAUCUACGAAUUC…UUCACUGCAGACUUGACGAAGCUG
Method in brief: as §1

biotinyl-Val-oxazolone = assay: self-aminoacylation, catalytic enhancement (BVO) (fold over background); higher = more active; k-Seq, kA / k0A0; sequences stand for … in GGGAAUGGAUCCACAUCUACGAAUUC…UUCACUGCAGACUUGACGAAGCUG
Method in brief: as §1

biotinyl-Ile-oxazolone = assay: self-aminoacylation, catalytic enhancement (BIO) (fold over background); higher = more active; k-Seq, kA / k0A0; sequences stand for … in GGGAAUGGAUCCACAUCUACGAAUUC…UUCACUGCAGACUUGACGAAGCUG
Method in brief: as §1

biotinyl-Met-oxazolone = assay: self-aminoacylation, catalytic enhancement (BMO) (fold over background); higher = more active; k-Seq, kA / k0A0; sequences stand for … in GGGAAUGGAUCCACAUCUACGAAUUC…UUCACUGCAGACUUGACGAAGCUG
Method in brief: as §1

biotinyl-Trp-oxazolone = assay: self-aminoacylation, catalytic enhancement (BWO) (fold over background); higher = more active; k-Seq, kA / k0A0; sequences stand for … in GGGAAUGGAUCCACAUCUACGAAUUC…UUCACUGCAGACUUGACGAAGCUG
Method in brief: as §1

Row | Sequence | self-aminoacylation (biotinyl-Leu-oxazolone) | self-aminoacylation (biotinyl-Phe-oxazolone) | self-aminoacylation (biotinyl-Val-oxazolone) | self-aminoacylation (biotinyl-Ile-oxazolone) | self-aminoacylation (biotinyl-Met-oxazolone) | self-aminoacylation (biotinyl-Trp-oxazolone)
1 | AUUACCAUGGUUAUCGAGUGA [Fam2.1 aminoacylation ribozyme variant] | 10.6 | 69.6 | 4.79 | 4.38 | 9.62 | 12.2
2 | CUUCACCUAUGUCAUCGGGUG [Fam2.2 aminoacylation ribozyme variant] | 4.68 | 17 | 2.83 | 2.35 | 3.64 | 4.46
3 | AUUCACCUUGGUCAGCGGGUG [Fam2.2 aminoacylation ribozyme variant] | 5.32 | 25.6 | 3.16 | 2.71 | 3.99 | 3.71
4 | AAGUUUGCGUAUAGUCGCAAG [Fam3.1 aminoacylation ribozyme variant] | 0.753 | 1.22 | 0.996 | 0.888 | 1.21 | 1.23
5 | CCACAAUUCAAGCACUCGGUC [Fam1B.1 aminoacylation ribozyme variant] | 1.24 | 0.706 | 1.18 | 1.4 | 1.17 | 0.787
6 | AUUCGCAUAGGUCAUCGGGUG [Fam2.2 aminoacylation ribozyme variant] | 12.2 | 66 | 7.08 | 5.95 | 9.49 | 9.43
7 | AUUCACCUAUGUCAUCGGCUG [Fam2.2 aminoacylation ribozyme variant] | 1.26 | 0.644 | 1.3 | 1.38 | 1.21 | 0.681
8 | CGACACUUCAAGCAAUCUGUC [Fam1B.1 aminoacylation ribozyme variant] | 0.411 | 0.656 | 0.51 | 0.554 | 0.52 | 0.416
9 | UUACUUCAAACAAUGGGUCUG [Fam1A.1 aminoacylation ribozyme variant] | 1.06 | 0.83 | 1.05 | 1.05 | 1.03 | 1.23
10 | CAACCUCAAACAAUCGGUCUG [Fam1A.1 aminoacylation ribozyme variant] | 1.61 | 11.5 | 1.31 | 1.21 | 1.37 | 4.78
11 | AAGUUUGCUAAUAGUGGCAUG [Fam3.1 aminoacylation ribozyme variant] | 0.754 | 1.1 | 0.772 | 0.823 | 0.821 | 0.862
12 | AUUACACUGGUCAUCGAGUGC [Fam2.1 aminoacylation ribozyme variant] | 1.38 | 0.887 | 1.05 | 1.06 | 1.32 | 1.56
13 | CUACUCCAAACAAUCGGCCUG [Fam1A.1 aminoacylation ribozyme variant] | 2.07 | 3.54 | 1.42 | 1.65 | 1.38 | 3.22
14 | AUUACCCUGGUCAGGGAGUGA [Fam2.1 aminoacylation ribozyme variant] | 3.27 | 18.9 | 2.54 | 2.57 | 3.36 | 2.41
15 | CAACUUCAAACAAUAGGUCUG [Fam1A.1 aminoacylation ribozyme variant] | 0.884 | 1.41 | 0.919 | 1.03 | 0.997 | 0.98
16 | AGUCACCUAGGUCAUCCGGUG [Fam2.2 aminoacylation ribozyme variant] | 6.49 | 56.9 | 5.32 | 5.6 | 6.2 | 7.84
17 | AUUUCCCUGGUGAUCGAGUGA [Fam2.1 aminoacylation ribozyme variant] | 5.66 | 44.4 | 3.15 | 2.77 | 5.5 | 6.58
18 | AUUACCCUGAUCUUCGAGUGA [Fam2.1 aminoacylation ribozyme variant] | 5.04 | 15.7 | 2.74 | 2.56 | 4.57 | 6.11
19 | AUUACCCUGGUCCUCGGGUGA [Fam2.1 aminoacylation ribozyme variant] | 10.4 | 69.6 | 6.25 | 5.18 | 9.89 | 9.25
20 | AUUACCCUGGUGAUCGACUGA [Fam2.1 aminoacylation ribozyme variant] | 1.12 | 0.543 | 1.02 | 1.05 | 0.951 | 0.743
21 | CUACUACAAACAAACGGUCUG [Fam1A.1 aminoacylation ribozyme variant] | 0.648 | 0.827 | 0.857 | 0.874 | 0.673 | 0.575
22 | AUGACCCUGGGCAUCGAGUGA [Fam2.1 aminoacylation ribozyme variant] | 8.34 | 42.4 | 3.32 | 3.97 | 7.08 | 7.35
23 | AUUACCCCUGUCAUCGAGUGA [Fam2.1 aminoacylation ribozyme variant] | 5.42 | 28.2 | 3.14 | 3.62 | 4.96 | 7.28
24 | AUUACGCUGGUCAUCGAGUGC [Fam2.1 aminoacylation ribozyme variant] | 1.31 | 1.4 | 1.33 | 1.02 | 1.44 | 1.24
25 | AUACACCUUGGUCAUCGGGUG [Fam2.2 aminoacylation ribozyme variant] | 4.72 | 19.9 | 2.89 | 3.47 | 3.63 | 4.4
26 | CUUCACCUAGGUCAUCGGGUG [Fam2.2 aminoacylation ribozyme variant] | 9 | 34.6 | 5.18 | 4.63 | 7.51 | 6.65

Row | Sequence | self-aminoacylation (biotinyl-Leu-oxazolone) | self-aminoacylation (biotinyl-Phe-oxazolone) | self-aminoacylation (biotinyl-Val-oxazolone) | self-aminoacylation (biotinyl-Ile-oxazolone) | self-aminoacylation (biotinyl-Met-oxazolone) | self-aminoacylation (biotinyl-Trp-oxazolone)
27 | AAUACCCUUGUCAUCGAGUGA [Fam2.1 aminoacylation ribozyme variant] | 4.72 | 5.23 | 2.43 | 2.42 | 4.58 | 5.93
28 | UUACUUCAAACCAUCGGUCUG [Fam1A.1 aminoacylation ribozyme variant] | 0.847 | 1.23 | 1.03 | 1.09 | 1.06 | 1.02
29 | AAGUUUGCUGAUAAUCGCAAG [Fam3.1 aminoacylation ribozyme variant] | 0.586 | 1.05 | 0.754 | 0.707 | 0.716 | 0.682
30 | CGACACUUCAAGCAAUCGGAC [Fam1B.1 aminoacylation ribozyme variant] | 1.57 | 1.21 | 1.31 | 1.67 | 1.74 | 1.31
31 | CGACACUUAAAGCAAUCGGUC [Fam1B.1 aminoacylation ribozyme variant] | 0.849 | 1.13 | 0.95 | 0.886 | 0.956 | 0.792
32 | AUUGCCCUGUUCAUCGAGUGA [Fam2.1 aminoacylation ribozyme variant] | 5.81 | 25.2 | 4.12 | 3 | 5.44 | 7.43
33 | AUUACCGUGGUCAUCGUGUGA [Fam2.1 aminoacylation ribozyme variant] | 2.49 | 5.4 | 1.25 | 1.3 | 1.64 | 2.03
34 | CCACACUUAAACCAAUCGGUC [Fam1B.1 aminoacylation ribozyme variant] | 0.572 | 1.19 | 0.756 | 0.938 | 0.615 | 0.722
35 | CUACUUCAAACAAUCGGUGUC [Fam1A.1 aminoacylation ribozyme variant] | 0.635 | 1.18 | 0.546 | 0.613 | 0.654 | 0.851
36 | AAGUUUACUCAUAGUCGCAAG [Fam3.1 aminoacylation ribozyme variant] | 1.8 | 2.83 | 1.43 | 1.65 | 1.58 | 1.88
37 | AUACACCUAGGUCAGCGGGUG [Fam2.2 aminoacylation ribozyme variant] | 3.49 | 15.5 | 2.15 | 2.29 | 3.8 | 3.08
38 | AUUACCCUCGUCAGCGAGUGA [Fam2.1 aminoacylation ribozyme variant] | 4.33 | 9.66 | 2.58 | 2.39 | 3.5 | 4.57
39 | AUUACCCUAGUCAUCAAGUGA [Fam2.1 aminoacylation ribozyme variant] | 3.66 | 11.2 | 2.58 | 2.05 | 3.73 | 4.95
40 | AUUACCCGGUUCAUCGAGUGA [Fam2.1 aminoacylation ribozyme variant] | 6.51 | 16.5 | 4.41 | 3.67 | 6.36 | 7.78
41 | AUACACCUAGGUCAUAGGGUG [Fam2.2 aminoacylation ribozyme variant] | 1.36 | 3.76 | 1.43 | 1.35 | 1.23 | 2.14
42 | AUUAAACUGGUCAUCGAGUGA [Fam2.1 aminoacylation ribozyme variant] | 4.35 | 4.94 | 2.42 | 2.71 | 4.15 | 6.94
43 | AUUAUCCUGGUCAUCGCGUGA [Fam2.1 aminoacylation ribozyme variant] | 19.9 | 146 | 8.29 | 6.96 | 17.9 | 19.3
44 | CCACACUUCAAGGAAUCGGGC [Fam1B.1 aminoacylation ribozyme variant] | 2.86 | 1.44 | 2.85 | 2.98 | 3.01 | 3.41
45 | CCACACUUCAAGCAAUAGGAC [Fam1B.1 aminoacylation ribozyme variant] | 0.479 | 0.856 | 0.537 | 0.621 | 0.456 | 0.626
46 | CCAGACUUCAAGCAAUCCGUC [Fam1B.1 aminoacylation ribozyme variant] | 1.45 | 1.19 | 1.58 | 1.67 | 1.47 | 1.95
47 | AUUACCCAGGUCACCGAGUGA [Fam2.1 aminoacylation ribozyme variant] | 10.2 | 66.2 | 4.49 | 4.17 | 8.63 | 10.3
48 | AAUUUUGUUAAUAGUCGCAAG [Fam3.1 aminoacylation ribozyme variant] | 1.93 | 2.48 | 1.72 | 2.04 | 2.05 | 2.56
49 | GUUCACCUAGGUCUUCGGGUG [Fam2.2 aminoacylation ribozyme variant] | 5.73 | 33.8 | 4.05 | 3.83 | 4.89 | 5.22
50 | AUUCACCUAUGUCAACGGGUG [Fam2.2 aminoacylation ribozyme variant] | 3.35 | 16.8 | 2.01 | 1.83 | 2.83 | 2.52
51 | AAUCACCAAGGUCAUCGGGUG [Fam2.2 aminoacylation ribozyme variant] | 10.7 | 54.3 | 5.67 | 4.92 | 6.79 | 8.66
